Experimental data published in the supplement of paper PMC10567573.

B1: ZNF193 (parent)
chain: QKRYHCKECGKVFSQSAGLIQHQR
B2: SLC2A12 (parent)
chain: TRIMIGLTLVFFVQITGQPNILFY

Variants of: B1
Experiment: protein stability index of a GFP-peptide fusion (GPS, HEK-293T) (PSI 1-6); higher = more stable
Conditions: c terminus: a fixed tail appended
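Note: lentivirally expressed fusions sorted by FACS into six bins by GFP to DsRed ratio, PSI derived from sequencing read proportions per bin multiplied by bin number.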

Protein stability index, by site and new letter:
S14: N 2.78; G 2.54; L 3.16; M 2.93; E 3.77; R 3.03; V 2.53; A 3.47; Y 3.25; W 2.08; C 2.58; T 3.06; K 3.23; P 2.72; F 2.68
G18: A 3.12; C 2.7; H 2.84; F 2.26; E 4.13; I 2.4; K 2.8; L 3.01; R 2.86; N 2.32; P 2.29; W 1.68; S 2.22; M 2.06; D 4.32; T 2.65; V 2.09; Y 2.31; Q 3.55
H22: L 1.75; R 1.62; A 1.16; W 1.99; D 2.1; Q 2.1; V 1.33; I 1.73; F 2.66; S 1.9; N 1.67; E 1.59; P 1.64; Y 1.5; K 2.14; T 2.05; M 1.84; G 1.41; C 2.04
L19: W 2.41; P 2.54; I 2.2; C 3.12; Q 2.45; K 2.34; V 2.12; G 2.37; E 2.31; S 1.97; M 2.35; N 2.56; T 1.94; A 2.45; F 2.43; H 2.58; D 2.35; R 2.55; Y 2.42
R24: M 2.44; S 2.43; F 2; D 3.33; I 1.96; C 4.52; P 2.44; V 2.28; G 3.05; T 2.33; L 1.43; E 3.53; A 2.83; Y 2.5; H 3.44; W 2.1; N 2; Q 2.48; K 3.65
F13: A 1.81; Q 2.29; I 2.42; V 2.05; C 2.15; N 1.67; P 2.39; D 1.72; H 3.12; E 2.42; R 2.17; W 2.03; G 1.87; M 1.82; S 2.12; T 1.91; Y 1.99; L 2.5; K 2.25
Q23: N 2.36; I 2.57; F 2.05; C 2.81; V 2.37; A 2.5; W 1.97; Y 2.4; R 2.85; E 2.55; P 1.74; T 2.51; H 2.97; K 3.36; D 2.29; S 2.54; G 2.07; M 3.13; L 2.69
K11: E 3.1; Q 3.04; D 1.88; P 2.12; N 1.66; A 3.19; V 2.18; H 2.34; C 2.3; T 2.64; S 2.37; I 2.32; Y 1.7; R 2.01; L 2.47; G 1.83; M 3.23; F 1.82; W 2.32

Variants of: B2
Experiment: as above
Conditions: c terminus: a fixed tail appended

Protein stability index: each site, then its substitutions
T1: G 3.81; M 1.44; A 2.48; Y 5.08; W 3.23; K 2.57; Q 2.42; I 3.72; P 2.26; S 3.37
R2: A 3.31; I 2.93; K 2.82; D 3.39; M 4.67; G 3.53; L 2.57; H 2.17; C 1.74
